The subject of test [1] is human monocytes. In words: Calcium flux in human monocytes. It is filed as cell-based. The protocol: (§1) Ca^2+ mobilization responses were performed using the intracellular ratiometric fluorescent dye, lndo-1. Cells were loaded with Indo-1/AM (3 μM; Molecular Probes, Eugene, Oreg.) in culture medium (45 min, 20° C., 10^7 cells/ml). After dye loading, cells were washed once with 10 ml PBS) and resuspended at 10^6 cell/ml in HBSS containing 1% FBS. Cytosolic [Ca^2+] release was determined using excitation at 350 nm using a Photon Technology International fluorimeter (excitation at 350 nm, ratioed dual emission at 400 and 490 nm).
(§2) The human recombinant chemokines, leukotactin, MlP-1α, three known CKβ8 variants CKβ8(1-99), CKβ8(25-99), CKβ8-1(1-116) and a novel NH2-terminal truncated form of CKβ8-1, CKβ8-1 (25-116) were obtained from R&D Systems (Minneapolis, Minn.). Human monocytes were generated from buffy coats (Stanford Blood Center, Palo Alto, Calif.) following a standard protocol. Briefly, PBMC were isolated by standard density gradient centrifugation (Ficoll-Paque-Plus, Pharmacia). Monocytes were purified using CD14 Microbeads (Miltenyi, Auburn, Calif.) magnetic positive selection. Human neutrophils were isolated from fresh peripheral blood from healthy individuals by gradient centrifugation on Ficoll-Hypaque (Hyclone, Calif.).
The activity of the CCL23 variants was tested on freshly prepared human monocytes and neutrophils using the calcium flux test described in Example 1.
(§3) Human monocytes were either generated from buffy coats (Stanford Blood Center, Palo Also, Calif.) or from fresh blood of healthy individuals following a standard protocol. Briefly, PBMC were isolated by a Ficoll-Paque gradient centrifugation (Ficoll-Paque-Plus, Pharmacia). Monocytes were purified by CD14 Microbeads (Miltenyi) magnetic positive selection. Human neutrophils were isolated from fresh blood by dextran sedimentation and gradient centrifugation Ficoll-Paque gradient centrifugation. All cells were washed and resuspended (1×10^7/ml) in RPMI medium with 10% FBS.
(§4) Ca^2+ mobilization responses were performed using an intracellular ratiometric fluorescent dye, Indo-1. Cells were loaded with Indo-1/AM (3 μM; Molecular Probes (Eugene, Oreg.)) in culture medium (45 min, 20° C., 10^7 cells/mi). After dye loading, cells were washed once (10 ml PBS) and resuspended at 10^6 cell/ml in HBSS containing 1% FBS. Cytosolic [Ca^2+] release was determined using excitation at 350 nm using a Photon Technology International fluorimeter (excitation at 350 nm, ratioed dual emission at 400 and 490 nm).

The subject of test [2] is human neutrophils. In words: Calcium flux in human neutrophils. It is filed as cell-based. Conditions: human neutrophils. The protocol:
as §1, §2, §3, §4

The test system of the next test is immature Dendritic Cells. Put plainly: Calcium mobilization, immature dendritic cells. It is filed as cell-based, human. The protocol:
(§5) Human recombinant CKβ8-1(25-116) chemokine was obtained from R&D Systems (Minneapolis, Minn.). The peptide SHAAGtides SEQ ID NO:1 and SEQ ID NO:6 and a control protein (the reverse sequence of SEQ ID NO:1) were synthesized and HPLC-purified using routine techniques as described in Sambrook et al., 1989, and Ausubel et al., 1999.
(§6) Immature DCs were derived by culturing CD14+ monocytes in the presence of GM-CSF and IL4. Briefly, monocytes were cultured in a T-175 flask at 10^6 cells/ml in RPMI/10% FCS. Recombinant human GM-CSF and IL4 were added on day 0, 2, 4 and 6 to a final concentration of 1000 u/ml and 500 u/ml, respectively. Cells were harvested on day 7 as immature DCs and characterized for surface protein expression by FACS analysis. DC maturation was carried out by culturing day 6 immature DCs in macrophage-conditioned medium (MCM). Briefly, day 6 immature DCs were harvested by centrifugation and resuspended in MCM at 10^6 cells/ml. The medium was supplemented with 1000 u/ml of GM-CSF and 500 u/ml IL4. After three more days of culture, cells were harvested as mature DCs and characterized by surface protein expression flow cytometry.
as §4
(Calcium assays in cells follow changes in intracellular calcium, usually with a dye or a luminescent sensor.)

In the next test the test system is mature Dendritic Cells. In words: Calcium mobilization, mature dendritic cells. It is filed as cell-based, human. The protocol:
as §5, §6
MCM was prepared as follows: PBMCs isolated from buffy coat were incubated at 37° C. in a plastic flask pre-coated with 10 mg/ml human IgG (Sigma, St Louis, Mo.) for 30 minutes. After 30 minutes, non-adherent cells were removed and adherent cells were washed three times with DPBS, then cultured in RPMI/10% human serum. Conditioned-medium was collected after 24 hours. TNF-α concentration, which is critical for DC maturation, was determined by using a TNF-α ELISA kit (R&D Systems, Minn.). The final TNF-α level in MCM was adjusted to 50 u/mi by mixing with RPMI/10% human serum, and was stored at −80 freezer until use.
as §4

The target of test [3] is monocytes. In words: 125I-MIP-1α binding competition, monocytes. Further details: species or system human. Conditions: Monocytes. Here is the method: The binding characteristics of CCL23 variants was compared in human CCR1 expressing cells. The ability of MIP-1α and the CCL23 variants CKβ8(1-99), CKβ8(25-99), CKβ8-1(1-116) and CKβ8-1(25-116) to compete with ^125I-MIP-1α binding was investigated in HEK293-CCR1 cells (prepared as in Example 1). The cells were incubated with ^125I-labeled MIP-1α (final conc. {dot over (˜)}0.05 nM) in the presence of unlabeled chemokine (3 hours at 4° C.: 25 mM HEPES, 140 mM NaCl, 1 mM CaCl2, 5 mM MgCl2 and 0.2% BSA, adjusted to pH 7.1). Reactions mixtures were aspirated onto PEI-treated GF/B glass filters using a cell harvester (Packard). The filters were washed twice (25 mM HEPES, 500 mM NaCl, 1 mM CaCl2, 5 mM MgCl2, adjusted to pH 7.1). Scintillant (MicroScint-10; 35 μl) was added to dried filters and the filiters counted in a Packard Topcount scintillation counter. Data were analyzed and plotted using Prism software (GraphPad Software, San Diego, Calif.).
(§7) Simiar binding competition tests were conducted on monocytes and neutrophils. These cells were prepared as in Example 2.

Test [4] deals with human monocytes. Put plainly: Migration assay (ChemoTx), human monocytes. It is filed as cell-based. Conditions: 90 min, 1-100 nM. The protocol:
(§8) Migration assays were performed on monocytes and neutrophils. Human monocytes and neutrophils (prepared as in Exampe 2) were harvested and resuspended in chemotaxis medium (CM). The CM consisted of Hank's buffered salt solution (Gibco, Mass.) containing CaCl2 (1 mM) and MgSO4 (1 mM) with added 0.1% BSA (Sigma, St. Louis, Mo.). The assays were performed in 96-well ChemoTx® microplates (Neuroprobe, Mass.). Leukotactin, MlP-1α and chemokines (CKβ8(1-99), CKβ8(25-99), CKβ8-1(1-116) or CKβ8-1(25-116), prepared as in Example 1) were added to the lower wells (final volume 29 μL), and 20 μL of cell suspension (5×10^6 cells/mL for monocytes; 2.5×10^6 cells/mL for neutrophils) added to the polycarbonate filters (5 μm pore size for monocytes; 3 μm pore size for neutrophils). After incubation for 90 min (37° C., 100% humidity, 5% CO2), cells were removed from the upper surface of the filter by scraping. Cells that migrated into the lower chamber were quantified using the Quant cell proliferation assay kit (Molecular Probes, Oreg.).
The chemotactic activity on human monocytes and neutrophils of chemokines: CKβ8(1-99), CKβ8(25-99), CKβ8(1-116) and CKβ8(25-116); W peptides 1 and 2 and the SHAAGtide sequences SEQ ID NO:1 and SEQ ID NO:2 was determined in migration assays. The above peptides were prepared as in previous examples. The migration assays were performed in 96-well CHEMOTX® microplates (Neuroprobe) using the protocol described in Example 5.

Test [5] relates to neutrophils. In words: Cross-desensitization with leukotactin, neutrophils. It is filed as cell-based, human. The protocol: (§9) In cross-desensitization tests tests, cells were stimulated sequentially with leukotactin and then the chemokines CKβ8(1-99), CKβ8(25-99), CKβ8-1(1-116), and CKβ8-1(25-116). On HEK293-CCR1 transfectants (prepared as in Example 1), leukotactin induced similar patterns of receptor desensitization to all variants.
(§10) Similar receptor cross-desensitization tests were performed using both monocytes and neutrophils (prepared as in Example 2).

Test [6] concerns monocytes. Put plainly: Cross-desensitization with leukotactin, monocytes. It counts as cell-based, human. Here is the method: as §9, §10
Test [7] has as its system human neutrophils. In words: Migration assay (ChemoTx), human neutrophils. It is filed as cell-based. Conditions: 90 min, 100 nM. The protocol:
as §8, with “Leukotactin, MlP-1α and chemokines (CKβ8(1-99), CKβ8(25-99), CKβ8-1(1-116) or CKβ8-1(25-116), prepared as in Example 1) were added to the lower wells (final volume 29 μL), and 20 μL of cell suspension (5×10^6 cells/mL for monocytes; 2.5×10^6 cells/mL for neutrophils) added to the polycarbonate filters (5 μm pore size for monocytes; 3 μm pore size for neutrophils).” left out
The above peptides were prepared as in previous examples.

Test [8] deals with neutrophils. Put plainly: MIP-1α binding, neutrophils. Further details: species or system human. The protocol: as §7
A further test concerns the target T1, CCR1 (Homo sapiens, UniProt P32246).
T1 construct: full length cDNA encoding CCR1 was cloned by the polymerase chain reaction (PCR) from genomic DNA isolated from human peripheral blood cells; expressed in transfected cells; pcDNA3.1 vector)
T1 sequence (P32246 1-355): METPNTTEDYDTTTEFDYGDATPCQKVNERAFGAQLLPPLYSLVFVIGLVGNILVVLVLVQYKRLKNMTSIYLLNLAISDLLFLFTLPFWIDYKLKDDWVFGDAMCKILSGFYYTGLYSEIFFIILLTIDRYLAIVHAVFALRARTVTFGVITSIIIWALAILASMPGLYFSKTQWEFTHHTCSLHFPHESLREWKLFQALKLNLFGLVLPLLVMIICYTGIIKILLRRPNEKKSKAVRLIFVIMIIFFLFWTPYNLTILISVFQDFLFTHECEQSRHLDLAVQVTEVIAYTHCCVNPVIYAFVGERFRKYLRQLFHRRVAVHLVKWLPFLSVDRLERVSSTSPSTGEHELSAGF
Put plainly: 125I-MIP-1α binding competition, HEK293-CCR1 cells. Conditions: HEK293-CCR1, 3 hours at 4° C. Here is the method:
The binding characteristics of CCL23 variants was compared in human CCR1 expressing cells. […] Reactions mixtures were aspirated onto PEI-treated GF/B glass filters using a cell harvester (Packard). The filters were washed twice (25 mM HEPES, 500 mM NaCl, 1 mM CaCl2, 5 mM MgCl2, adjusted to pH 7.1). Scintillant (MicroScint-10; 35 μl) was added to dried filters and the filiters counted in a Packard Topcount scintillation counter. Data were analyzed and plotted using Prism software (GraphPad Software, San Diego, Calif.).

“And” between values parts separate entries of the source, which are not always exact repeats. Identical values can stand only once.

On to “Gly Ala Ala His Ser Leu Thr Met Gin Pro Gly lie Lys Arg Arg Trp Leu Met (GAAHSLTMQPGIKRRWLM) [Control peptide (SEQ ID NO: 33), reference compound]”, for which the calcium flux result is on record as “No significant calcium flux” in the test with human monocytes [1] (human monocytes, Example 8); “No significant calcium flux” with human neutrophils [2] (Example 8); “No significant calcium flux” with immature Dendritic Cells; “No significant calcium flux” in the test with mature Dendritic Cells.

B1: CKβ8(1-99): known CKβ8 (CCL23) variant, human recombinant chemokine from R&D Systems (protein, listed as Homo sapiens)
chain: RVTKDAETEFMMSKLPLENPVLLDRFHATSADCCISYTPRSIPCSLLESYFETNSECSKPGVIFLTKKGRRFCANPSDKQVQVCMRMLKLDTRIKTRKN
B1: the calcium release entry in the test on human monocytes [1] (freshly prepared human monocytes, up to 250 nM) was “poor activity”. The IC50 (in general, the concentration needed to halve the response being measured) on monocytes [3] is 10 nM and 10.3 nM. For the same molecule, the migration of monocytes result in the test with human monocytes [4] is on record as “moderate activity”. The “desensitization by leukotactin prestimulation” value is “inactive” with neutrophils [5] and “completely desensitized” in the test on monocytes [6]. The calcium flux entry with human neutrophils [2] (100 nM) is recorded as “neither MlP-1α nor CKβ8(1-99), CKβ8(25-99) or CKβ8(1-116) induced a calcium flux”.

B2: MIP-1α: macrophage inflammatory protein, human recombinant chemokine, CCR1 ligand (protein, listed as Homo sapiens)
chain: SLAADTPTACCFSYTSRQIPQNFIADYFETSSQCSKPGVIFLTKRSRQVCADPSEEWVQKYVSDLE
Regarding B2, the migration of neutrophils result in the test with human neutrophils [7] was “none of the known CCR1 ligands including leukotactin and MlP-1α was active”. The 50% inhibitory concentration (IC50) at monocytes [3] was 0.27 nM; in the test with CCR1, 0.54 nM. Further, the “MIP-1α binding to neutrophils” value in the test with neutrophils [8] is “does not bind neutrophils”. For the same molecule, in the test on human neutrophils [2] (100 nM), the calcium flux result is “neither MlP-1α nor CKβ8(1-99), CKβ8(25-99) or CKβ8(1-116) induced a calcium flux”.

B3: leukotactin: human recombinant chemokine, CCR1 agonist (protein, listed as Homo sapiens)
chain: SFHFAADCCTSYISQSIPCSLMKSYFETSSECSKPGVIFLTKKGRQVCAKPSGPGVQDCMKKLKPYSI
On to B3, for which the migration of neutrophils result in the test with human neutrophils [7] was “none of the known CCR1 ligands including leukotactin and MlP-1α was active”. The calcium flux result in the test on human neutrophils [2] (100 nM) is “induced a calcium flux”.

Values taken from patent US8637043B2, “Compositions useful as ligands for the formyl peptide receptor like 1 receptor and methods of use thereof” (Chemocentryx, Inc., priority 2001, dated 2014).
